Measurements reported in patent publication US20230129258A1 (Bicycle, published 2023).
Substitutions are numbered along the chain they refer to. Starred links: 1 amine or outer side, 2 acyl side, 3 side chain; linkers in the order of their positions; H or OH if unused. Positions of bridges follow the written chain, without caps; N, C: chain ends. Non-standard residues stand in square brackets, D forms with d. Chains are numbered I, II in the order given. No end group written: not given here. dLys(PYA) = D-lysine Nε-acylated with 4-pentynoic acid, clicked (triazole) to the linker azide, O=C(CCc1cn([*:3])nn1)NCCCC[C@@H](N[*:1])C(=O)[*:2]; TATA = O=C(CC[*:1])N1CN(C(=O)CC[*:2])CN(C(=O)CC[*:3])C1; 1Nal = N[C@@H](Cc1cccc2ccccc12)C(=O)O; Hyp = O=C(O)[C@@H]1C[C@@H](O)CN1; hArg = N=C(N)NCCCC[C@H](N)C(=O)O; tBuAla = CC(C)(C)C[C@H](N)C(=O)O; Nle = CCCC[C@H](N)C(=O)O

Legend:
[1] = target: T1, CD137 on Jurkat reporter cells (Promega kit CS196005) (UniProt Q07011 24-255, limits assumed); test: cell-based or functional assay
[2] = target: T1, CD137 on Jurkat reporter cells (Promega …); test: cell-based or functional assay; remark: listed apart in the source
[3] = target: T2, rat CD137 extracellular domain (rat, UniProt Q4W8J3 24-189); test: SPR dual binding, BCY11863 captured on biotinylated human Nectin-4, n = 2
T2 sequence: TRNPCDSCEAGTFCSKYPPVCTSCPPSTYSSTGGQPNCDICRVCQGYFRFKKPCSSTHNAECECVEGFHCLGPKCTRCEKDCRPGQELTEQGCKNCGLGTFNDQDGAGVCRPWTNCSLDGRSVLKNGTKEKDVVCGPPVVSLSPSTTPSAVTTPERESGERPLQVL

[4] = target: T3, mouse CD137 extracellular domain (mouse, UniProt P20334 24-187); test: as above
T3 construct: extracellular domain
T3 sequence (looked up): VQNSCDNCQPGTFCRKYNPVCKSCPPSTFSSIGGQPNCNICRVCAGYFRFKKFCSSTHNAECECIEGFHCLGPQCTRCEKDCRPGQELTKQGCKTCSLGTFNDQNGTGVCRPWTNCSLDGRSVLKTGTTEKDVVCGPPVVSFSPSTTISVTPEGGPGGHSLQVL

[5] = target: T4, human Nectin-4 extracellular domain (human, UniProt Q96NY8 32-349, biotinylated where captured on the streptavidin chip); test: SPR, direct binding of BCY11863 to immobilized human Nectin-4, 1:1 fit
T4 construct: extracellular domain; also called Nectin-4 (human); Biotinylated - Nectin-4 extracellular domain
T4 sequence (looked up): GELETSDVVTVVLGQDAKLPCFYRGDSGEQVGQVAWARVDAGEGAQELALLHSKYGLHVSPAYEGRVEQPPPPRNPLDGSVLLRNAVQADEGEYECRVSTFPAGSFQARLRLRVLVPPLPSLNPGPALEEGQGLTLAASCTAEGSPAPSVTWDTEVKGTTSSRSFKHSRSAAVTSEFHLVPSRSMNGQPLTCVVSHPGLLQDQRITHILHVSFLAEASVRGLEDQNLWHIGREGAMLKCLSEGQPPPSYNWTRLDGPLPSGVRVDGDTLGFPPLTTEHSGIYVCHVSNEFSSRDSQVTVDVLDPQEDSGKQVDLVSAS

[6] = target: T5, rat Nectin-4 extracellular domain (rat, UniProt D3ZET1 31-348, biotinylated where captured on the streptavidin chip); test: SPR direct binding, biotinylated Nectin-4 ECD on streptavidin chip, 25° C., n = 6
T5 construct: extracellular domain
T5 sequence: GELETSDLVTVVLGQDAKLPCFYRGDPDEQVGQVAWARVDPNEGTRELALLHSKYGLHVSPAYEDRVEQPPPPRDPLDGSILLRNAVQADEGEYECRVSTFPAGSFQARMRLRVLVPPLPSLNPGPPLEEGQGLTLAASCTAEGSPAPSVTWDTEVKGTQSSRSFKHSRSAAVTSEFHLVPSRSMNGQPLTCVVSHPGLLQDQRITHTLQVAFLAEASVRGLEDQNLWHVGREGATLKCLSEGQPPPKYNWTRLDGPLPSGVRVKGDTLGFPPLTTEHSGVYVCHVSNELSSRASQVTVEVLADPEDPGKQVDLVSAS

[7] = target: T4, human Nectin-4 extracellular domain; test: SPR direct binding, biotinylated Nectin-4 ECD on streptavidin chip, 25° C., n = 7
[8] = target: T6, cyno (NHP) Nectin-4 extracellular domain (cyno (NHP), UniProt A0A2K5WES1 32-349, biotinylated where captured on the streptavidin chip); test: SPR direct binding, biotinylated Nectin-4 ECD on streptavidin chip, 25° C., n = 9
T6 construct: extracellular domain
T6 sequence: T4 sequence (looked up) with V39A, I230V

[9] = target: T7, mouse Nectin-4 extracellular domain (mouse, UniProt Q8R007 31-347, biotinylated where captured on the streptavidin chip); test: as above
T7 construct: extracellular domain
T7 sequence (looked up): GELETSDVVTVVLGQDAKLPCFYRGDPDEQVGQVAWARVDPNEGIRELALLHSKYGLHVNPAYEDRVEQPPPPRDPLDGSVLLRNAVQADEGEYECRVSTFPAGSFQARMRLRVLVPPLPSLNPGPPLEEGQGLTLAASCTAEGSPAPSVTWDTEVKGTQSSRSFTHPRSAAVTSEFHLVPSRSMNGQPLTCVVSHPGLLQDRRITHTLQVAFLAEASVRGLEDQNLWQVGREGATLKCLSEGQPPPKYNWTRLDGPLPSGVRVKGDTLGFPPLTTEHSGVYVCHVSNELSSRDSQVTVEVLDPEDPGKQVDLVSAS

[10] = target: T8, cyno (NHP) CD137 extracellular domain (cyno (NHP), UniProt A9YYE7 24-186); test: SPR dual binding, BCY11863 captured on biotinylated human Nectin-4, soluble CD137 ECD passed over, n = 3
T8 construct: extracellular domain

[11] = target: T9, human CD137 extracellular domain (human, UniProt Q07011 24-186, biotinylated where captured on the streptavidin chip); test: dual binding SPR: BCY11863 captured on immobilized human Nectin-4, soluble human CD137 as analyte, 1:1 fit [ctd) D]
T9 construct: extracellular domain; Section 17 says only 'Recombinant human CD137 (R&D systems)'; also called CD137 (human); Recombinant human CD137 (R&D systems)
T9 sequence (Q07011 24-186): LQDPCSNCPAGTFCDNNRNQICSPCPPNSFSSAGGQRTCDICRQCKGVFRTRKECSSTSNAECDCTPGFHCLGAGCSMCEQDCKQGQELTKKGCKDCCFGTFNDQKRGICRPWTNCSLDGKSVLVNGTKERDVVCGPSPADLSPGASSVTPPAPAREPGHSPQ

T1 sequence (Q07011 24-255 limits assumed): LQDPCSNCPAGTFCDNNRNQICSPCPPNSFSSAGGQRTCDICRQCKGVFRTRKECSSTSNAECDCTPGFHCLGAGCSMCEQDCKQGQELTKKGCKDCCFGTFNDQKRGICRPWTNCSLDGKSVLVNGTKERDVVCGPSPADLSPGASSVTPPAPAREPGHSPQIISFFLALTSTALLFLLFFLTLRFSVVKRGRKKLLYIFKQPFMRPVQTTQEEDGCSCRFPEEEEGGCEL
T8 sequence (A9YYE7 entry or part of it): as the sequence (Q07011 24-186) above, with P4L, N19S, R50K, T66I, P67S, F69Y, G75E, V149A counted along it

B1: heterotandem bicyclic peptide complex BCY11863 (peptide)
peptide 1: CP[1Nal][dD]CM[hArg]DWSTP[Hyp]WC
peptide 2: Ac-C[tBuAla]PE[dLys(PYA)]PYCFADPY[Nle]CA
modifications: linker I:1-I:5-I:15, II:1-II:8-II:15 via TATA; not fully specified (bridges); also: 1:2 complex: BCY8116 + 2x BCY8928
notes: also called Nectin-4/CD137 heterotandem
EC50 (nM), NCI-H292 co-culture [1]: 0.168 nM
Fold Induction over Background, NCI-H292 co-culture [1]: 81 fold
Arithmetic mean EC50 (nM), CT26#7 co-culture [2]: 0.14 nM
Arithmetic mean EC50 (nM), HT1376 co-culture [2]: 0.52 nM
Arithmetic mean EC50 (nM), MC38#13 co-culture [2]: 0.31 nM
Arithmetic mean EC50 (nM), MDA-MB-468 co-culture [2]: 0.23 nM
Arithmetic mean EC50 (nM), NCI-H292 co-culture [2]: 0.28 nM
Arithmetic mean EC50 (nM), NCI-H322 co-culture [2]: 0.33 nM
Arithmetic mean EC50 (nM), T47D co-culture [2]: 0.42 nM
binding result [3]: no binding
binding result [4]: no binding
koff [5]: 0.00229 s⁻¹
kon [5]: 561000 M⁻¹ s⁻¹
Kd [6]: 15 nM
Kd [7]: 5 nM
Kd [8]: 27 nM
Kd [9]: 4.6 nM
Kd [10]: 18 nM
Kd [11]: 6.26 nM
koff [11]: 0.00275 s⁻¹
kon [11]: 439000 M⁻¹ s⁻¹
